Data reported in paper PMC3977044.
Like-named read-outs stand apart in the source and are kept apart here.

What was measured:
[1] = biological target: Mos1 transposase D284A (with T216A), catalytically inactive mutant (Drosophila mauritiana); experiment: SEC
[2] = biological target: Mos1 transposase R48Q/Q100R (with T216A), DNA binding deficient mutant (Drosophila mauritiana); experiment: SEC
[3] = biological target: Mos1 transposase R48Q/Q100R D284A (with T216A), DNA binding and catalytically inactive mutant (Drosophila mauritiana); experiment: SEC
Mos1 transposase T216A [4] = biological target: T1, Mos1 transposase T216A (Drosophila mauritiana (mariner Mos1), UniProt Q7JQ07 1-345, T216A); experiment: X-ray crystallography
T1 sequence: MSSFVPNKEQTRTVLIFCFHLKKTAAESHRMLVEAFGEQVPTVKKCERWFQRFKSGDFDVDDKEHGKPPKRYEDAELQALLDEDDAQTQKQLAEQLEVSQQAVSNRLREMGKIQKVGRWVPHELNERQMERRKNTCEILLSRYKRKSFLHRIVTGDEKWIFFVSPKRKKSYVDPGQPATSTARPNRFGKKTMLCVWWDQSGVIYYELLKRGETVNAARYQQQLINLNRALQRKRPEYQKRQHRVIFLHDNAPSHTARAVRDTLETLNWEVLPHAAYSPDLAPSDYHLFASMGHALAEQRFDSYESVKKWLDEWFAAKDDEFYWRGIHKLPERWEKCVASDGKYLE

Mos1 transposase T216A [5] = biological target: T1, Mos1 transposase T216A; experiment: X-ray crystallography; remark: listed apart in the source
[6] = biological target: T2, Mos1 transposase R48Q/Q100R (Drosophila mauritiana (mariner Mos1), UniProt Q7JQ07 1-345, R48Q;Q100R;T216A); experiment: EMSA
T2 sequence: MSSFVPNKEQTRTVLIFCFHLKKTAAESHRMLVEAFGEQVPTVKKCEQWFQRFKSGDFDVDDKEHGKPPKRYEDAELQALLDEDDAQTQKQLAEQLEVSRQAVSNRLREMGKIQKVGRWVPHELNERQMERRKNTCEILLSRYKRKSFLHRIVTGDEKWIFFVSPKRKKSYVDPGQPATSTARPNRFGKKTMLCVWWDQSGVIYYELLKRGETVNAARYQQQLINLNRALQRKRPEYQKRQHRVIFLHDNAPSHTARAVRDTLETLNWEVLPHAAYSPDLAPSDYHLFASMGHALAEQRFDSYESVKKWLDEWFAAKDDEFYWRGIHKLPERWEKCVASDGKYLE

“Mos1 transposase D284A (with T216A), catalytically inactive mutant (enzyme)” gave a stoichiometry N [1] of 2.

“Mos1 transposase R48Q/Q100R (with T216A), DNA binding deficient mutant (enzyme)” was tested, and the stoichiometry N [2] was 2.

Molecule “Mos1 transposase R48Q/Q100R D284A (with T216A), DNA binding and catalytically inactive mutant (enzyme)” has a stoichiometry N [3] of 2.

B1: IRR duplex with 5-iodo-dU at T16 (dsDNA)
DNA 1: AAACGACATTTCATACTTGTACACCTGA
DNA 2: GGTGTACAAGTATGAAATGTCGTTT
modifications: 5-iodo-dU replacing T16 (NTS nucleotide 13 by structure numbering); 5' phosphate on NTS presumed
B1: binds (Mos1 transposase T216A [4]).

B2: pre-cleaved IRR duplex (28 nt TS / 25 nt NTS) (dsDNA)
DNA 1: AAACGACATTTCATACTTGTACACCTGA
DNA 2: GGTGTACAAGTATGAAATGTCGTTT
modifications: 5' phosphate on NTS
B2: binds (Mos1 transposase T216A [5]).

B3: 100 bp IRR plus flank NTS cleavage substrate (dsDNA)
DNA 1: ACGGGCTCCAGTCGGTGAATATAGAAACTATCAGGTGTACAAGTATGAAATGTCGTTTTTTTTAAATCAAAAAACACGTTAAATTTTGTGGAAAAAGAAA
DNA 2: TTTCTTTTTCCACAAAATTTAACGTGTTTTTTGATTTAAAAAAAACGACATTTCATACTTGTACACCTGATAGTTTCTATATTCACCGACTGGAGCCCGT
B3: no binding [6].
